From patent publication US20050124549A1 (ADMINISTRATORS OF THE TULANE EDUCATIONAL FUND, published 2005)
Where no end group is shown, it is not given here. [ ]: non-standard residue; d: D form.

Columns and labels:
[1] = target: T1, human somatostatin receptor subtype 2 (human, UniProt P30874 1-369); test: cell-based or functional assay
T1 construct: whole, on cells; also called SSTR2; SSTR-2

[2] = target: human somatostatin receptor subtype 4 (human) (UniProt P31391); test: radioligand displacement, CHO-K1 membranes expressing human SSTR4; competitor [125I-Tyr11]SS-14
[3] = target: T2, human somatostatin receptor subtype 3 (human, UniProt P32745 1-418); test: radioligand displacement, CHO-K1 membranes expressing human SSTR3; competitor [125I-Tyr11]SS-14
T2 construct: whole, on cells; Membrane preparations of transfected CHO-K1 cells; also called SSTR3; SSTR-3
Method: (§1) Specificity and selectivity of the analogues were determined by Radioligand Binding Assay on CHO-K1 cells stably transfected with each of the SSTR subtypes, as follows.
(§2) Membranes for in vitro receptor binding assays were obtained by homogenizing the CHO-K1 cells expressing the SSTR's subtypes in ice-cold 50 mM Tris-HCl and centrifuging twice at 39000 g (10 min), with an intermediate resuspension in fresh buffer. The final pellets were resuspended in 10 mM Tris-HCl for assay. […] The final assay volume was 0.3 ml. […] The incubations were terminated by rapid filtration through GF/C filters (pre-soaked in 0.3% polyethylenimine) using a Brandel filtration manifold. Each tube and filter were then washed three times with 5 ml aliquots of ice-cold buffer.

[4] = target: T3, human somatostatin receptor subtype 5 (human, UniProt P35346 1-364); test: radioligand displacement, CHO-K1 membranes expressing human SSTR5; competitor [125I-Tyr11]SS-14
T3 construct: whole, on cells; also called SSTR5; SSTR-5
Method: as §1, §2

[5] = target: T1, human somatostatin receptor subtype 2; test: radioligand displacement, CHO-K1 membranes expressing human SSTR2; competitor [125I]MK-678
Method: as §1, §2

[6] = target: T4, human somatostatin receptor subtype 1 (human, UniProt P30872 1-391); test: radioligand displacement, CHO-K1 membranes expressing human SSTR1; competitor [125I-Tyr11]SS-14
T4 construct: whole, on cells; Membrane preparations of transfected CHO-K1 cells; also called SSTR1; SSTR-1
Method: as §1, §2

T3 sequence (P35346 whole entry): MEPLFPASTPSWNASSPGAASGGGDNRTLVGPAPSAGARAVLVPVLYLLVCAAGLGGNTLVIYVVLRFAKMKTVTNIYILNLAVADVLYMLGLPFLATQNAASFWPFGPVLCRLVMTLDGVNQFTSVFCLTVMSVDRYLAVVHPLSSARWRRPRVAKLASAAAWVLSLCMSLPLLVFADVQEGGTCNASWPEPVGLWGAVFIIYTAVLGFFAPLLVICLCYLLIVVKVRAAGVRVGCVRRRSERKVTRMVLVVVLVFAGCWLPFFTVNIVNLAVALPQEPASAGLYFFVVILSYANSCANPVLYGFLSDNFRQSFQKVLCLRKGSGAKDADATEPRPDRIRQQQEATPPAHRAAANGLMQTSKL
T4 sequence (P30872 whole entry): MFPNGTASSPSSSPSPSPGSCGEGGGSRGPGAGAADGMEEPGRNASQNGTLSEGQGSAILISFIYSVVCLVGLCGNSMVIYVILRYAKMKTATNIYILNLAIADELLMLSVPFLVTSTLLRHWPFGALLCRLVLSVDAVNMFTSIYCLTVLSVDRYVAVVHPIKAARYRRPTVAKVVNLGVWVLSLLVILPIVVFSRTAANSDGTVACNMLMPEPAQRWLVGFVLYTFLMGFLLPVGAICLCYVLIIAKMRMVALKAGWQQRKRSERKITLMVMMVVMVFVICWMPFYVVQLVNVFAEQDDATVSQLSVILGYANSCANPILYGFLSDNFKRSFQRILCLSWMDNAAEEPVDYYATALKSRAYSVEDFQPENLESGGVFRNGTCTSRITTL
T1 sequence (P30874 whole entry): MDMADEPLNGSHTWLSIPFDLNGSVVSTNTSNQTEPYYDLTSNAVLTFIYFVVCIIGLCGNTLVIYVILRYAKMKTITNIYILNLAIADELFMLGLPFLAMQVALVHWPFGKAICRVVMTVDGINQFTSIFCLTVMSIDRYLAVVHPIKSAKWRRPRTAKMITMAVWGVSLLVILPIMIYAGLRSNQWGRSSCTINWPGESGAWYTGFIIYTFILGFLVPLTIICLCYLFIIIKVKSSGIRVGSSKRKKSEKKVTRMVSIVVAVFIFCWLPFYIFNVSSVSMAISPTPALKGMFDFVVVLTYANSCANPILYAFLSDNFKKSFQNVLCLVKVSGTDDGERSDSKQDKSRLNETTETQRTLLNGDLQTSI
T2 sequence (P32745 whole entry): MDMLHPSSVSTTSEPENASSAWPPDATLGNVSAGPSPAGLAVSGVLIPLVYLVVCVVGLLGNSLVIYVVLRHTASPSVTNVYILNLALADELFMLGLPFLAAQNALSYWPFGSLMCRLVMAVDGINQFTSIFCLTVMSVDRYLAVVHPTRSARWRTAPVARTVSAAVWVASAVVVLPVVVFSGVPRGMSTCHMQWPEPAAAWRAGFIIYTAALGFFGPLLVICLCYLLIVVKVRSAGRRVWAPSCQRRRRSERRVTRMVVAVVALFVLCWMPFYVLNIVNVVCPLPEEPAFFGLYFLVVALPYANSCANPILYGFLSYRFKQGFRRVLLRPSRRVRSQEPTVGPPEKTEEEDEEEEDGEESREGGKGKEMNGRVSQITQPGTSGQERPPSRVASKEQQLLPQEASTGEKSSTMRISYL
human somatostatin receptor subtype 4 (human), sequence (P31391 whole entry): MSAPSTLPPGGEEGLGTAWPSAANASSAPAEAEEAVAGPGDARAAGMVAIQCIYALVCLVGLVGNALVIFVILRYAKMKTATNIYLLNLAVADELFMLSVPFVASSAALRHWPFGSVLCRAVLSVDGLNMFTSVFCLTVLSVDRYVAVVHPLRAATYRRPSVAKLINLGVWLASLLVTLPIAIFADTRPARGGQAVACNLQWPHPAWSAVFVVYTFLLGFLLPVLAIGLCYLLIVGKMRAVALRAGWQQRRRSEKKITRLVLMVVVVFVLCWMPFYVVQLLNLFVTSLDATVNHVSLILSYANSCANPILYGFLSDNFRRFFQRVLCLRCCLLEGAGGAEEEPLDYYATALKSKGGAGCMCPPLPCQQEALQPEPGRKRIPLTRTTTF

Molecule | suppression of [^3H]thy incorporation in TT cells, 10^-9 to 10^-7 M [1] [%] | IC50 [2] [nM] | IC50 [3] [nM] | IC50 [4] [nM] | IC50 [5] [nM] | IC50 [6] [nM] | change of [^3H]thy incorporation in TT cells at 10^-9 M [1] [%]
Compound 2: cyclo[Tic-Tyr-D-Trp-Lys-Abu-Phe] (peptide) | 23 to 58 | 1000 | 412 | 214 | 0.34 | 1000 | 
Compound 3: 4-(2-Hydroxyethyl)-1-piperazinylacetyl-D-Phe-cyclo(Cys-Tyr-D-Trp-Lys-Abu-Cys)-Thr-NH2 (peptide) |  |  |  |  | 0.35 | 5210 | -17
Compound 4: 4-(2-Hydroxyethyl)-1-piperazine-2-ethanesulfonyl-D-Phe-cyclo(Cys-Tyr-D-Trp-Lys-Abu-Cys)-Thr-NH2 (peptide) |  |  |  |  |  |  | -13
Compound 6: Cpa-cyclo(D-Cys-4-Pal-D-Trp-Lys-Thr-Cys)-Nal-NH2 (peptide) |  |  | 44 | 86.5 | 6.4 | 2760 | 
XCYXKVCT (not fully specified; D-Nal at position 1; D-Trp at position 4; cyclo (disulfide) Cys2-Cys7; C-terminal amide, also called SSTR2 preferential agonist) [Compound 1: D-Nal-cyclo[Cys-Tyr-D-Trp-Lys-Val-Cys]-Thr-NH2] |  |  | 98 |  | 0.75 | 2130 | 
[dF]FW[dW]KTFT-NH2 (also called SSTR5 preferential agonist; SSTR5 selective agonist) [Compound 5: D-Phe-Phe-Trp-D-Trp-Lys-Thr-Phe-Thr-NH2] |  |  | 1000 | 2.4 | 166 | 1150 | 
